# Measured values as given in PMC5508000, “Identification of the Components Involved in Cyclic Di-AMP Signaling in Mycoplasma pneumoniae” (Frontiers in Microbiology, 2017).
# B1: MPN140 (NrnA) (Mycoplasmoides pneumoniae M129) (protein)
# chain: MNSQVHRKGSIAEAVSAIQAHDKIVIFHHIRPDGDCLGAQHGLARLIQTNFPHKQVFCVGDPKHNFPWLEMVFTPKEQITPELMQQALAVIVDANYKERIECRDLLDQNQFKAVLRIDHHPNEDDLNTTHNFVDASYIAAAEQVVDLAVQAKWKLSPPAATALYLGIYTDSNRFLYSNTSWRTLYLGSMLYRAQANIAKIHDELNHTSLKDIQFKQYVFKNFQTFQNVIYFVADKKFQKKLKVTPLECARVNILANIEQFHIWLFFIEEGKNHYRVEFRSNGINVREVALKYGGGGHIQASGAVLKSKRDIIRVVQDCQKQIAV
# B2: GdpP (Bacillus subtilis subsp. subtilis str. 168) (protein)
# chain: PIGIMLFNDQYYIEWANPFLSSCFNESTLVGRSLYDTCESVVPLIKQEVESETVTLNDRKFRVVIKRDERLLYFFDVTEQIQIEKLYENERTVLAYIFLDNYDDVTQGLDDQTRSTMNSQVTSLLNAWAQEYGIFLKRTSSERFIAVLNEHILTELENSKFSILDEVREKTSFDGVALTLSVGVGASVSSLKELGDLAQSSLDLALGRGGDQVAIKLPNGKVKFYGGKTNPMEKRTRVRARVISHALKEIVTESSNVIIMGHKFPDMDSIGAAIGILKVAQANNKDGFIVIDPNQIGSSVQRLIGEIKKYEELWSRFITPEEAMEISNDDTLLVIVDTHKPSLVMEERLVNKIEHIVVIDHHRRGEEFIRDPLLVYMEPYASSTAELVTELLEYQPKRLKINMIEATALLAGIIVDTKSFSLRTGSRTFDAASYLRAKGADTVLVQKFLKETVDSYIKRAKLIQHTVLYKDNIAIASLPENEEEYFDQVLIAQAADSLLSMSEVEASFAVARRDEQTVCISARSLGEVNVQIIMEALEGGGHLTNAATQLSGISVSEALERLKHAIDEYFEGGVQR
# notes: cytoplasmic portion, residues 84-659, C-terminal Strep-tag, expressed in E. coli BL21(DE3), plasmid pGP2720
# Key:
# KtrC (MPN461) = biological target: T1, KtrC (MPN461) (Mycoplasmoides pneumoniae, UniProt P75322); assay: pull-down on c-di-AMP agarose, elution with free c-di-AMP, MS identification; type: binding; details: labelled compound: immobilised 2'-AHC-c-di-AMP agarose, eluted with 1 mM free c-di-AMP; cell extract; pH 7.5, 4 °C
# T1 construct: gene MPN_461; native protein from M. pneumoniae cell extract, identified by mass spectrometry
# T1 sequence (P75322 1-231): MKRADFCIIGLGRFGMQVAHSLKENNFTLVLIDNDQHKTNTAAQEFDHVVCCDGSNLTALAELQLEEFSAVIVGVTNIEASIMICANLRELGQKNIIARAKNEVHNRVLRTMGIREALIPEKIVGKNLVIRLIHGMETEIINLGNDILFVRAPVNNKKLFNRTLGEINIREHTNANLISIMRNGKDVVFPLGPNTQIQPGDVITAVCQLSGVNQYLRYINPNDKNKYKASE
# [1] = system: O=[N+]([O-])c1ccc(OP(=O)(O)Oc2ccc([N+](=O)[O-])cc2)cc1; assay: OD410 nitrophenol release, microplate; type: biochemical, Mycoplasmoides pneumoniae; details: MnCl2 0.1 mM, 100 mM Tris-HCl pH 8.3, 10 mM NaCl, 37 °C
# From the text: OD410 nitrophenol release, microplate on MPN549 (PdeM)
# [2] = substrate: O=[N+]([O-])c1ccc(OP(=O)(O)Oc2ccc([N+](=O)[O-])cc2)cc1; assay: OD410 nitrophenol release, microplate; type: biochemical, Mycoplasmoides pneumoniae; details: MnCl2 0.1 mM, 100 mM Tris-HCl pH 8.3, 10 mM NaCl, 37 °C; remark: listed apart in the source
# From the text: OD410 nitrophenol release, microplate on MPN140 (NrnA)
# [3] = substrate: O=[N+]([O-])c1ccc(OP(=O)(O)Oc2ccc([N+](=O)[O-])cc2)cc1; assay: OD410 nitrophenol release, microplate; type: biochemical, Bacillus subtilis; details: MnCl2 0.1 mM, 100 mM Tris-HCl pH 8.3, 10 mM NaCl, 37 °C
# From the text: OD410 nitrophenol release, microplate on GdpP
molecule,measurement,setting,value
Nc1ncnc2c1ncn2[C@@H]1O[C@@H]2COP(=O)(O)O[C@H]3[C@@H](O)[C@H](n4cnc5c(N)ncnc54)O[C@@H]3COP(=O)(O)O[C@H]2[C@H]1O [c-di-AMP],"pull-down on c-di-AMP agarose, elution with free c-di-AMP, MS identification",KtrC (MPN461),c-di-AMP-binding proteins were eluted with free c-di-AMP
MPN549 (PdeM) (Mycoplasmoides pneumoniae M129),Km,[1],600 µM
B1,Km,[2],1600 µM
same,kcat,[2],3.67e-06 s⁻¹
B2,Km,[3],1450 µM
